Reference: patent publication US20140105889A1 (published 2014)
Residue numbers refer to the chain shown, from its start.

B1: IL6R-BP086/IL6R-L (antibody, human IgG1)
heavy: QVQLQESGPGLVKPSETLSLTCAVSGHSISHDHAWSWVRQPPGEGLEWIGFISYSGITNYNPSLQGRVTISRDNSKNTLYLQMNSLRAEDTAVYYCARSLARTTAMDYWGEGTLVTVSSASTKGPSVFPLAPSSKSTSGGTAALGCLVKDYFPEPVTVSWNSGALTSGVHTFPAVLQSSGLYSLSSVVTVPSSSLGTQTYICNVNHKPSNTKVDKKVEPKSCDKTHTCPPCPAPELLGGDSVFLFPPKPKDTLMISRTPEVTCVVVDVSHEDPEVKFNWYVDGVEVHNAKTKPREEQYNSTYRVVSVLTVLHQDWLNGKEYKCKVSNAALPKPIEKTISKAKGQPREPQVYTLPPSRDELTKNQVSLTCLVKGFYPSDIAVEWESNGQPENNYKTTPPVLDSDGSFFLYSKLTVDKSRWQQGNVFSCSVMHEALHNHYTQESLSLSP
light: DIQMTQSPSSLSASVGDRVTITCRASQDISSYLNWYQQKPGKAPKLLIYYTSRLHSGVPSRFSGSGSGTDFTFTISSLQPEDIATYYCQQGNTLPYTFGQGTKVEIK
notes: copies: 2 + 2
B2: IL6R-BP088/IL6R-L (antibody, human IgG1)
heavy: B1 heavy with G239D
light: B1 light
notes: copies: 2 + 2
B3: IL6R-BP130/IL6R-L (antibody, human IgG1)
heavy: B1 heavy with E235D, V325M, A328K
light: B1 light
notes: copies: 2 + 2
B4: IL6R-BP145/IL6R-L (antibody, human IgG1)
heavy: B1 heavy with L236Y, G239D, A328K, K332A
light: B1 light
notes: copies: 2 + 2
B5: IL6R-G1d/IL6R-L (antibody, human IgG1)
heavy: not shown
light: B1 light
notes: Anti-human IL-6 receptor IgG1 with the G1d constant region (C-terminal Gly and Lys removed); template used for producing IL6R-B3; also called IgG1; copies: 2 + 2
B6: IL6R-BP148/IL6R-L (antibody, human IgG1)
heavy: B1 heavy with E235D, L236Y, G239D
light: B1 light
notes: EU numbering
B7: IL6R-BP150/IL6R-L (antibody, human IgG1)
heavy: B1 heavy with L236Y, G239D, K332R
light: B1 light
notes: EU numbering
B8: IL6R-BP151/IL6R-L (antibody, human IgG1)
heavy: B1 heavy with E235D, L236Y, G239D, K332R
light: B1 light
notes: EU numbering
B9: IL6R-BP176/IL6R-L (antibody, human IgG1)
heavy: B1 heavy with E235D, A328D
light: B1 light
notes: EU numbering
B10: IL6R-BP177/IL6R-L (antibody, human IgG1)
heavy: B1 heavy with E235D, L236Y, G239D, P273G, A328D
light: B1 light
notes: EU numbering
B11: IL6R-BP178/IL6R-L (antibody, human IgG1)
heavy: B1 heavy with E235D, G239D, P273G, A328K
light: B1 light
notes: EU numbering
B12: IL6R-BP181/IL6R-L (antibody, human IgG1)
heavy: B1 heavy with E235D, P273G
light: B1 light
notes: EU numbering
B13: IL6R-BP206/IL6R-L (antibody, human IgG1)
heavy: B1 heavy with E235D, P273G, A328K, K332R
light: B1 light
notes: Anti-human IL-6 receptor IgG1 Fc variant
B14: IL6R-BP203/IL6R-L (antibody, human IgG1)
heavy: B1 heavy with G239D, P273G, A328K, K332R
light: B1 light
notes: as for B13
B15: IL6R-BP211/IL6R-L (antibody, human IgG1)
heavy: B1 heavy with E235D, H270D, P273G, K332R
light: B1 light
notes: as for B13
B16: IL6R-BP201/IL6R-L (antibody, human IgG1)
heavy: B1 heavy with E235D, G239D, P273G, A328K, K332R
light: B1 light
notes: Anti-human IL-6 receptor human IgG1 variant; copies: 2 + 2
B17: IL6R-BP202/IL6R-L (antibody, human IgG1)
heavy: B1 heavy with G239D, P273G, K332R
light: B1 light
notes: as for B16
B18: F1060 (antibody, human IgG1, kappa, name in EU numbering)
heavy: B1 heavy with D240P, M254Y, A328K, K332A, Q388S, N436Y, Y438V, E441K
light: not shown
notes: copies: 2 + 2
B19: F1071 (antibody, human IgG1, kappa, name in EU numbering)
heavy: B1 heavy with D240P, M254Y, A328K, K332A, N436Y, Y438V, Q440S, E441K
light: not shown
notes: copies: 2 + 2
B20: F1072 (antibody, name in EU numbering)
heavy: B1 heavy with D240P, M254Y, A328K, K332A, N436Y, Y438V, E441K, S442E
light: not shown
notes: copies: 2 + 2
B21: F1076 (antibody, human IgG1, kappa, name in EU numbering)
heavy: B1 heavy with D240P, S241D, M254Y, A328D, L330Y, K332A, N436Y, Y438V, E441K
light: not shown
notes: copies: 2 + 2
B22: F1078 (antibody, human IgG1, kappa, name in EU numbering)
heavy: B1 heavy with D240P, M254Y, A328K, K332A, E382N, E384S, N436Y, E441K
light: not shown
notes: copies: 2 + 2
B23: F1079 (antibody, human IgG1, kappa, name in EU numbering)
heavy: B1 heavy with D240P, M254Y, A328K, K332A, E384N, N386S, N436Y, E441K
light: not shown
notes: copies: 2 + 2
B24: F1099 (antibody, human IgG1, kappa, name in EU numbering)
heavy: B1 heavy with D240P, M254Y, A328D, L330Y, K332A, N436Y, E441K
light: not shown
notes: copies: 2 + 2

biological target: T1, human FcγRIIb (human, UniProt P31994 43-217, limits assumed); test: ratio of this variant's SPR KD for FcγRIIaR to its KD for FcγRIIb
T1 construct: also called FcγIIB; hFcgRIIb
T1 sequence: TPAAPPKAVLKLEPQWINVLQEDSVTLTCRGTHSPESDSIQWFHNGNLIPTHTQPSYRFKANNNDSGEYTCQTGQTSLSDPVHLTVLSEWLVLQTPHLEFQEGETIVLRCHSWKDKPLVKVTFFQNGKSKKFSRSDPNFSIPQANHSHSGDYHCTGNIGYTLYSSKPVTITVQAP
Source text: (§1) Furthermore, KD(IIaR)/KD(IIb) and KD(IIaH)/KD(IIb) in the table respectively represent the value obtained by dividing the KD value of each variant for FcγRIIaR by the KD value of each variant for FcγRIIb, and the value obtained by dividing the KD value of each variant for FcγRIIaH by the KD value of each variant for FcγRIIb.

Binder | KD (IIaR)/KD (IIb)
B1 | 17.1
B2 | 13.3
B3 | 17.5
B4 | 9.9
B5 | 0.4

biological target: T2, FcγRIIb (human, UniProt P31994 43-217, limits assumed); test: ratio of SPR KD values of this variant (FcγRIIaR over FcγRIIb)
T2 construct: also called FcγIIB; FcgRIIb
T2 sequence: T1 sequence
Source text: as §1

Binder | KD (IIaR)/KD (IIb)
B6 | 14.5
B7 | 17.7
B8 | 16.9
B9 | 19.1
B10 | 13.6
B11 | 18.1
B12 | 20.3

biological target: T3, FcγRIIIa type V (human, UniProt P08637 17-208, limits assumed); test: SPR (Biacore), antibody captured on chip, FcγR as analyte, method of Example 14
T3 construct: Soluble analyte in Biacore; also called FcγRIIIaV; FcγRIIIa(V)
T3 sequence (P08637 other isoform, or with tags, fused parts or gaps limits assumed): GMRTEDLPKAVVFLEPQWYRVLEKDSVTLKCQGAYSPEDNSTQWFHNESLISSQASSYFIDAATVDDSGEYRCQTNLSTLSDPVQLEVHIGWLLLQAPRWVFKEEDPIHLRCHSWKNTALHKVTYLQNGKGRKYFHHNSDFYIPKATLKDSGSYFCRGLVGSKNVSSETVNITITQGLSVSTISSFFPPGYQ
Procedure: Next, interaction between these antibodies and FcγR was analyzed kinetically using the Biacore T100 (GE Healthcare). The interaction was measured at a temperature of 25° C. using HBS-EP+ (GE Healthcare) for the running buffer. The Series S Sensor Chip CM5 (GE Healthcare) was used after immobilizing Protein A by amine coupling. […] Antibody captured on the chip was washed by allowing 10 mM glycine-HCl (pH 1.5) to react following measurement. The chip regenerated in this manner was used repeatedly. The dissociation constant KD (mol/L) was calculated from the association rate constant ka (L/mol/s) and dissociation rate constant kd (1/s) as calculated by global-fitting the measurement results with a 1:1 Langmuir binding model using the Biacore

Binder | Kd [nM]
B13 | 69000
B14 | 72000
B15 | 75000

biological target: T1, human FcγRIIb; test: ratio of this variant's SPR KD for FcγRIIaH to its KD for FcγRIIb
Source text: as §1

Binder | KD (IIaH)/KD (IIb)
B1 | 89.9
B2 | 106
B3 | 55.5
B4 | 49.9
B5 | 0.3

biological target: T4, human FcγRIIb (human, UniProt P31994 43-217); test: SPR (Biacore); KD of parent IL6R-B3/IL6R-L for FcγRIIb divided by KD of the variant for FcγRIIb
T4 construct: also called FcγIIB
T4 sequence: T1 sequence
Source text: as §1

Binder | KD(IIb) of the parent polypeptide/KD(IIb) of the altered polypeptide
B16 | 77.1
B17 | 48.4

biological target: T5, human FcRn (human); test: SPR (Biacore), pH 7.0, 25 C, antibody captured by Protein L, human FcRn as analyte
T5 construct: also called hFcRn; soluble human FcRn complexed with β2-microglobulin
T5 sequence (chain, as listed by the source limits assumed, chain 1 of 2): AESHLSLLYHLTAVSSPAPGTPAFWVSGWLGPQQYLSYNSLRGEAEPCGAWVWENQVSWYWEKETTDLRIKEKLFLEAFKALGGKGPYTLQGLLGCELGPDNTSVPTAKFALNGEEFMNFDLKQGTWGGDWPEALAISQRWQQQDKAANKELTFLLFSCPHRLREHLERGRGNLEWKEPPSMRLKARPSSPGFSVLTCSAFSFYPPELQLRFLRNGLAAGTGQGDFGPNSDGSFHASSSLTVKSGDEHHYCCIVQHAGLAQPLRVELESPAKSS
T5 sequence (P61769 21-119 limits assumed, chain 2 of 2): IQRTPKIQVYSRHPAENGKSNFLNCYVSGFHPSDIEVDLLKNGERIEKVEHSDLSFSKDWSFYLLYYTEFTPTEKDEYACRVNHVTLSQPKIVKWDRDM
Procedure: A kinetic analysis of binding between human FcRn and the aforementioned antibodies was carried out using the Biacore T100 or T200 (GE Healthcare). The antibodies being tested were captured on the CM4 Sensor Chip (GE Healthcare) on which a suitable amount of Protein L (ACTIGEN) was suitably immobilized by amine coupling. Next, diluted human FcRn and a running buffer used as a blank were injected to allow the human FcRn to interact with the antibody captured on the sensor chip. A buffer consisting of 50 mmol/L sodium phosphate, 150 mmol/L NaCl and 0.05% (w/v) Tween 20 (pH 7.0 or pH 7.4) was used for the running buffer, and each buffer was also used to dilute the human FcRn. 10 mmol/L glycine-HCl (pH 1.5) was used to regenerate the sensor chip. All measurements of binding were carried out at 25° C. The KD(M) of each antibody to human FcRn was calculated based on kinetics parameters, i.e., the association rate constant ka (1/Ms) and the dissociation rate constant kd (1/s) calculated from a sensorgram obtained by the measurement. The Biacore T100 or T200 Evaluation Software (GE Healthcare) was used to calculate each parameter.

Binder | Kd [nM]
B18 | 143
B19 | 124
B20 | 135
B21 | 127
B22 | 470
B23 | 344
B24 | 257

biological target: T2, FcγRIIb; test: ratio of SPR KD values of this variant (FcγRIIaH over FcγRIIb)
Source text: as §1

Binder | KD (IIaH)/KD (IIb)
B6 | 93.8
B7 | 109
B8 | 118
B9 | 83.1
B10 | 159
B11 | 272
B12 | 182

biological target: T6, FcγRIIa type H (human, UniProt P12318 36-217); test: SPR (Biacore), captured antibody, FcγR as analyte, method of Example 14
T6 construct: also called FcγRIIaH; FcγRIIa(H)
T6 sequence: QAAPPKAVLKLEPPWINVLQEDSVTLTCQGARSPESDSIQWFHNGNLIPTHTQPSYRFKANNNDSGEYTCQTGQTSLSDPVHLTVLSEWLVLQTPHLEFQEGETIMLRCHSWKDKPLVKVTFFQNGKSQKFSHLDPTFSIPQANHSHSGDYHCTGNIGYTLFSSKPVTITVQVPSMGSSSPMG

Binder | Kd [nM]
B6 | 9000
B9 | 3000
B10 | 6200
B11 | 1400
B12 | 2600

biological target: T7, human FcγRIIa type H (allotype H131) (human, UniProt P12318 36-217); test: SPR (Biacore), antibody captured on the chip, FcγR as analyte
T7 construct: also called FcγRIIaH; FcγRIIa(H)
T7 sequence: T6 sequence

Binder | Kd [nM]
B16 | 6900
B17 | 9200
